{"source": "paper PMC6400076", "about": "(Frontiers in Microbiology, 2019)", "key": {"AvGAPDH": {"biological_target": "T1, AvGAPDH (Fannyhessea vaginae, UniProt F1T6A5)", "T1 construct": "gene gap; recombinant, expressed and purified by similar protocols as previously described, homotetramer", "T1 sequence (F1T6A5 entry or part of it)": "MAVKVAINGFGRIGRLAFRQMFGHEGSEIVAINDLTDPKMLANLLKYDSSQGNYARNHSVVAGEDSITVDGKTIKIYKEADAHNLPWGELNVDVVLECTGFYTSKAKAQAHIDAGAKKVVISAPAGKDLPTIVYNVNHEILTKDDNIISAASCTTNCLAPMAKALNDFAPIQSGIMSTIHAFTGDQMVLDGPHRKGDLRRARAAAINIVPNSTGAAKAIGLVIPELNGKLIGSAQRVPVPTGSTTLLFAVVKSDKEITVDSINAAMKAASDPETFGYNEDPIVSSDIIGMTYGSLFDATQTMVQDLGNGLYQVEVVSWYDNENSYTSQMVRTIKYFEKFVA", "assay_type": "biochemical"}, "SpGAPDH": {"biological_target": "T2, SpGAPDH (Streptococcus pyogenes, UniProt P68777)", "T2 construct": "gene gap", "T2 sequence (P68777 whole entry)": "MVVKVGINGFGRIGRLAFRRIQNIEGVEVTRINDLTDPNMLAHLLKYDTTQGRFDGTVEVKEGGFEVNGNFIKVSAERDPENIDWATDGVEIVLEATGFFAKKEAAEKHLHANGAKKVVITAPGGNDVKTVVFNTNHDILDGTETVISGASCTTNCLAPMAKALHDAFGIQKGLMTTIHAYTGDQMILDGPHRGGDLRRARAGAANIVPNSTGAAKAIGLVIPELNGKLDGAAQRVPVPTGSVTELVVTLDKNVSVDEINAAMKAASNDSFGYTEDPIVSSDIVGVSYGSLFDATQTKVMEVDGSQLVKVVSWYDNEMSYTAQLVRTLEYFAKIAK"}, "[1]": {"tested_on": "NC(=O)c1ccc[n+]([C@@H]2O[C@H](COP(=O)(O)OP(=O)(O)OC[C@H]3O[C@@H](n4cnc5c(N)ncnc54)[C@H](O)[C@@H]3O)[C@@H](O)[C@H]2O)c1", "assay": "purified protein", "conditions": "5 mM G3P, 50 mM Pi, pH 8.5, 25°C"}, "O=C[C@H](O)COP(=O)(O)O": {"tested_on": "O=C[C@H](O)COP(=O)(O)O", "assay": "purified protein", "conditions": "2 mM NAD+, 50 mM Pi, pH 8.5, 25°C"}}}
{"compound": "COc1cc(/C=C/C(=O)CC(=O)/C=C/c2ccc(O)c(OC)c2)ccc1O", "note": "[curcumin]", "values": [{"measurement": "Ki", "setting": "AvGAPDH", "result": "39 ± 3", "unit": "µM"}, {"measurement": "Ki", "setting": "SpGAPDH", "result": "38 ± 4", "unit": "µM"}]}
{"compound": "SpGAPDH (Streptococcus pyogenes MGAS8232)", "values": [{"measurement": "Km", "setting": "[1]", "result": "0.28 ± 0.03", "unit": "mM"}, {"measurement": "Vmax", "setting": "[1]", "result": "2.24e+06", "unit": "µM/min/mg"}, {"measurement": "kcat", "setting": "[1]", "result": "3730 ± 100", "unit": "s⁻¹"}, {"measurement": "Km", "setting": "O=C[C@H](O)COP(=O)(O)O", "result": "2.8 ± 0.3", "unit": "mM"}, {"measurement": "Vmax", "setting": "O=C[C@H](O)COP(=O)(O)O", "result": "3.67e+06", "unit": "µM/min/mg"}, {"measurement": "kcat", "setting": "O=C[C@H](O)COP(=O)(O)O", "result": "6110 ± 260", "unit": "s⁻¹"}, {"measurement": "kcat/Km", "setting": "O=C[C@H](O)COP(=O)(O)O", "result": "2.18e+06 ± 320000", "unit": "M⁻¹ s⁻¹"}]}
{"compound": "CCCCCCCCCCCCCCCc1cccc(O)c1C(=O)O", "note": "[anacardic acid, 6-pentadecylsalicylic acid]", "values": [{"measurement": "Ki", "setting": "AvGAPDH", "result": "1.25 ± 0.08", "unit": "µM"}, {"measurement": "Ki", "setting": "SpGAPDH", "result": "3.3 ± 0.3", "unit": "µM"}]}
